Results: US10130693B2, “Peptides, combination of peptides and scaffolds for use in immunotherapeutic treatment of various cancers” (Immatics Biotechnologies GmbH, priority 2015, dated 2018)

biological target: HLA-A*02:01 (Homo sapiens, UniProt P04439, D140Y/D185E/D98H/E176V/E277Q/G131W/G231S/I119V/I121R/I166T/I218V/L300P/L318F/N151K/N90K/P208A/P217A/Q86G/Q94H/R138H/R169H/T345S); assay: MHC binding assay, UV-ligand exchange with beta2m ELISA (exchange yield), HLA-A*02; settings: binding to HLA-A*02 ranged by peptide exchange yield
Source text: Candidate peptides for T cell based therapies according to the present invention were further tested for their MHC binding capacity (affinity). The individual peptide-MHC complexes were produced by UV-ligand exchange, where a UV-sensitive peptide is cleaved upon UV-irradiation, and exchanged with the peptide of interest as analyzed. Only peptide candidates that can effectively bind and stabilize the peptide-receptive MHC molecules prevent dissociation of the MHC complexes. To determine the yield of the exchange reaction, an ELISA was performed based on the detection of the light chain (β2m) of stabilized MHC complexes. The assay was performed as generally described in Rodenko et al. (Rodenko et al., 2006).
96 well MAXISorp plates (NUNC) were coated over night with 2 ug/ml streptavidin in PBS at room temperature, washed 4× and blocked for 1 h at 37° C. in 2% BSA containing blocking buffer. […] Peptide-MHC monomers of the UV-exchange reaction were diluted 100 fold in blocking buffer. Samples were incubated for 1 h at 37° C., washed four times, incubated with 2 ug/ml HRP conjugated anti-β2m for 1h at 37° C., washed again and detected with TMB solution that is stopped with […]. Absorption was measured at 450 nm. Candidate peptides that show a high exchange yield (preferably higher than 50%, most preferred higher than 75%) are generally preferred for a generation and production of antibodies or fragments thereof, and/or T cell receptors or fragments thereof, as they show sufficient avidity to the MHC molecules and prevent dissociation of the MHC complexes.

Row | Substance | Peptide exchange (MHC class I binding score)
1 | 27 (KVFGDLDQV; listed as Homo sapiens) [compound 27] | +++ (50%-75% = +++)
2 | 25 (IQADDFRTL; listed as Homo sapiens) [compound 25] | ++ (20%-49% = ++)
3 | 338 (LLYDGKLSSA; listed as Homo sapiens) [compound 338] | ++ (20%-49% = ++)
4 | 28 (TLYSMDLMKV; listed as Homo sapiens) [compound 28] | +++ (50%-75% = +++)
5 | 77 (IVLSTIASV; listed as Homo sapiens) [compound 77] | +++ (50%-75% = +++)
6 | 325 (RLLPKVQEV; listed as Homo sapiens) [compound 325] | ++ (20%-49% = ++)
7 | 330 (FLWPKEVEL; listed as Homo sapiens) [compound 330] | +++ (50%-75% = +++)
8 | 48 (TLDHKPVTV; listed as Homo sapiens) [compound 48] | ++ (20%-49% = ++)
9 | 84 (FLEEEITRV; listed as Homo sapiens) [compound 84] | +++ (50%-75% = +++)
10 | 61 (HLPDFVKQL; listed as Homo sapiens) [compound 61] | ++ (20%-49% = ++)
11 | 54 (FINPKGNWLL; listed as Homo sapiens) [compound 54] | +++ (50%-75% = +++)
12 | 13 (VLRDNIQGI; listed as Homo sapiens) [compound 13] | +++ (50%-75% = +++)
13 | 340 (SVAKTILKR; listed as Homo sapiens) [compound 340] | ++ (20%-49% = ++)
14 | 22 (MLSDLTLQL; listed as Homo sapiens) [compound 22] | ++++ (>=75% = ++++)
15 | 336 (GLMDGSPHFL; listed as Homo sapiens) [compound 336] | ++ (20%-49% = ++)
16 | 41 (FVLPLVVTL; listed as Homo sapiens) [compound 41] | +++ (50%-75% = +++)
17 | 79 (SLVPLQILL; listed as Homo sapiens) [compound 79] | ++++ (>=75% = ++++)
18 | 53 (SLLSHVIVA; listed as Homo sapiens) [compound 53] | +++ (50%-75% = +++)
19 | 66 (FITDFYTTV; listed as Homo sapiens) [compound 66] | +++ (50%-75% = +++)
20 | 80 (TLDEYLTYL; listed as Homo sapiens) [compound 80] | +++ (50%-75% = +++)
21 | 335 (VLLAAGPSAA; listed as Homo sapiens) [compound 335] | ++ (20%-49% = ++)

Row | Substance | Peptide exchange (MHC class I binding score)
22 | 324 (AIFDFCPSV; listed as Homo sapiens) [compound 324] | ++++ (>=75% = ++++)
23 | 40 (SLLALPQDLQA; listed as Homo sapiens) [compound 40] | +++ (50%-75% = +++)
24 | 38 (KMQEDLVTL; listed as Homo sapiens) [compound 38] | +++ (50%-75% = +++)
25 | 327 (SIGDIFLKY; listed as Homo sapiens) [compound 327] | +++ (50%-75% = +++)
26 | 4 (ELAEIVFKV; listed as Homo sapiens) [compound 4] | +++ (50%-75% = +++)
27 | 45 (VLGPTPELV; listed as Homo sapiens) [compound 45] | +++ (50%-75% = +++)
28 | 93 (SLLTQPIFL; listed as Homo sapiens) [compound 93] | +++ (50%-75% = +++)
29 | 20 (ALDGHLYAI; listed as Homo sapiens) [compound 20] | +++ (50%-75% = +++)
30 | 19 (TLLPTVLTL; listed as Homo sapiens) [compound 19] | +++ (50%-75% = +++)
31 | 87 (YLTEVFLHVV; listed as Homo sapiens) [compound 87] | +++ (50%-75% = +++)
32 | 5 (SLFGQEVYC; listed as Homo sapiens) [compound 5] | +++ (50%-75% = +++)
33 | 47 (GLYQAQVNL; listed as Homo sapiens) [compound 47] | +++ (50%-75% = +++)
34 | 6 (FLDPAQRDL; listed as Homo sapiens) [compound 6] | +++ (50%-75% = +++)
35 | 49 (LLDESKLTL; listed as Homo sapiens) [compound 49] | +++ (50%-75% = +++)
36 | 52 (ELLSSIFFL; listed as Homo sapiens) [compound 52] | +++ (50%-75% = +++)
37 | 29 (TLCNKTFTA; listed as Homo sapiens) [compound 29] | +++ (50%-75% = +++)
38 | 50 (EYALLYHTL; listed as Homo sapiens) [compound 50] | ++ (20%-49% = ++)
39 | 91 (SSLEPQIQPV; listed as Homo sapiens) [compound 91] | + (<20% = +)
40 | 70 (GLFSQHFNL; listed as Homo sapiens) [compound 70] | +++ (50%-75% = +++)
41 | 89 (YLVAHNLLL; listed as Homo sapiens) [compound 89] | +++ (50%-75% = +++)

tested on: HLA-A*24; assay: MHC binding assay, UV-ligand exchange with beta2m ELISA (exchange yield), HLA-A*24; set-up: species or system human; settings: binding to HLA-A*24, UV-ligand exchange
Summary of the method: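 Peptide–MHC complexes formed by UV-ligand exchange: a UV-cleavable peptide is replaced by the test peptide, and only binders keep the complex stable. Exchange yield read by streptavidin-capture ELISA on reactions diluted 100-fold, detected with HRP anti-β2m (2 ug/ml, 1 h, 37° C) and TMB at 450 nm.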

Row | Substance | Peptide exchange (MHC class I binding score, peptide exchange yield)
42 | 211 (VFKSEGAYF; listed as Homo sapiens) [compound 211] | ++++ (>=75% = ++++)
43 | 381 (KYPASSSVF; listed as Homo sapiens) [compound 381] | +++ (50%-75% = +++)
44 | 202 (RYVEGIVSL; listed as Homo sapiens) [compound 202] | +++ (50%-75% = +++)
45 | 199 (SYLNHLNNL; listed as Homo sapiens) [compound 199] | +++ (50%-75% = +++)
46 | 153 (VYVPFGGKSMITF; listed as Homo sapiens) [compound 153] | ++++ (>=75% = ++++)
47 | 283 (EYQEIFQQL; listed as Homo sapiens) [compound 283] | +++ (50%-75% = +++)
48 | 263 (RYILENHDF; listed as Homo sapiens) [compound 263] | +++ (50%-75% = +++)
49 | 218 (LYSELNKWSF; listed as Homo sapiens) [compound 218] | +++ (50%-75% = +++)
50 | 242 (VYGEPRELL; listed as Homo sapiens) [compound 242] | +++ (50%-75% = +++)
51 | 248 (AFPTFSVQL; listed as Homo sapiens) [compound 248] | ++++ (>=75% = ++++)
52 | 260 (VYMNVMTRL; listed as Homo sapiens) [compound 260] | ++++ (>=75% = ++++)
53 | 270 (YYSQESKVLYL; listed as Homo sapiens) [compound 270] | +++ (50%-75% = +++)
54 | 184 (IYSVGAFENF; listed as Homo sapiens) [compound 184] | ++++ (>=75% = ++++)
55 | 240 (YYFFVQEKI; listed as Homo sapiens) [compound 240] | +++ (50%-75% = +++)
56 | 268 (IFITKALQI; listed as Homo sapiens) [compound 268] | ++ (20%-49% = ++)
57 | 128 (VYPFDWQYI; listed as Homo sapiens) [compound 128] | ++++ (>=75% = ++++)
58 | 257 (IFIDNSTQPLHF; listed as Homo sapiens) [compound 257] | +++ (50%-75% = +++)
59 | 239 (VYAIFRILL; listed as Homo sapiens) [compound 239] | +++ (50%-75% = +++)
60 | 125 (VFSRDFGLLVF; listed as Homo sapiens) [compound 125] | +++ (50%-75% = +++)
61 | 176 (FYINGQYQF; listed as Homo sapiens) [compound 176] | +++ (50%-75% = +++)
62 | 273 (IYGEKLQFIF; listed as Homo sapiens) [compound 273] | +++ (50%-75% = +++)
